Laboratory results published in the supplement of paper PMC12855868.

B1: library; numbered along this chain (parent)
chain: MAAAGGARLLRAASAVLGGPAGRWLHHAGSRAGSSGLLRNRGPGGSAEASRSLSVSARARSSSEDKITVHFINRDGETLTTKGKVGDSLLDVVVENNLDIDGFGACEGTLACSTCHLIFEDHIYEKLDAITDEENDMLDLAYGLTDRSRLGCQICLTKSMDNMTVRVPETVADARQSIDVGKTS

Variants of: B1
Experiment: scaled log2 fold change in cell abundance, elesclomol vs control (0 = silent mean, 1 = nonsense mean) (scaled log2 ratio); higher = higher viability under elesclomol (loss of FDX1 cuproptosis function)
Details: glucose 10 mM
[1] = with ABC1 FDX1 KO, elesclomol 5 nM, 14 days
[2] = with HEK293T FDX1 KO, elesclomol 40 nM, 11 days
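Further: variant abundance is its share of total variant reads in each endpoint sample, from next-generation sequencing of the integrated ORF PCR-amplified out of genomic DNA.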

| Variant | scaled log2 fold change [1] | scaled log2 fold change [2] |
| --- | --- | --- |
| L117K | 1.07 | 1.03 |
| L117D | 1.19 | 0.855 |
| L117N | 1.04 | 0.559 |
| L117H | 1.03 | 1.35 |
| L117R | 1.14 | 0.855 |
| L117Y | 1 | 1.02 |
| L117C | 0.0758 | 0.451 |
| L117S | 0.36 | -1.36 |
| L117Q | 1.05 | 0.896 |
| L117V | 0.152 | 0.867 |
| L117A | 0.00712 | 0.115 |
| L117W | 1.03 | 0.891 |
| L117F | 0.176 | 0.206 |
| L117T | 0.178 | 0.185 |
| L117M | 0.167 | -0.247 |
| L117G | 0.483 | 0.224 |
| L117P | 1.02 | 1.03 |
| L117E | 1.05 | 0.745 |
| L117I | -0.11 | -0.196 |
| F119C | 0.133 | 0.831 |
| F119I | 0.0519 | -0.0254 |
| F119H | 0.658 | -0.0181 |
| F119P | 0.974 | 0.628 |
| F119T | 0.311 | 0.547 |

| Variant | scaled log2 fold change [1] | scaled log2 fold change [2] |
| --- | --- | --- |
| F119S | 1.07 | 0.993 |
| F119Q | 0.852 | 0.755 |
| F119M | 0.178 | 0.132 |
| F119V | -0.0745 | 1.48 |
| F119E | 1.04 | 1.21 |
| F119L | 0.0116 | – |
| F119G | 1.05 | 0.397 |
| F119A | 0.901 | 0.518 |
| F119K | 1.05 | 1.21 |
| F119R | 1.09 | 0.953 |
| F119Y | 0.389 | 0.17 |
| F119D | 1.06 | 1.02 |
| F119W | 0.0722 | -0.0842 |
| F119N | 0.967 | 0.538 |
| C115M | 1.03 | 1.19 |
| C115G | 1.06 | 1.1 |
| C115K | 1.02 | 0.763 |
| C115P | 1.1 | 1.51 |
| C115Y | 1.1 | 0.829 |
| C115I | 1.04 | 0.907 |
| C115D | 1.16 | 0.979 |
| C115H | 0.953 | 1.29 |
| C115T | 1.13 | 0.783 |
| C115E | 1.27 | 0.99 |

| Variant | scaled log2 fold change [1] | scaled log2 fold change [2] |
| --- | --- | --- |
| C115S | 1.09 | 1.13 |
| C115Q | 0.93 | 1.07 |
| C115L | 1.09 | 1.15 |
| C115V | 1.07 | 1.37 |
| C115N | 0.976 | 1.34 |
| C115F | 1 | 1.25 |
| C115W | 1.1 | 1.36 |
| C115A | 1.07 | 1.02 |
| C115R | 1.02 | 1.68 |
| K126C | -0.0261 | -0.165 |
| K126A | -0.285 | 0.163 |
| H116T | 0.317 | -0.824 |
| H116N | -0.0564 | -0.554 |
| H116D | 0.16 | -0.115 |
| H116Q | -0.185 | 0.198 |
| H116C | 0.0577 | 0.973 |
| H116P | 0.152 | 0.891 |
| H116A | 0.129 | 0.404 |
| H116V | 0.0823 | -0.296 |
| H116S | -0.0363 | 0.435 |
| H116I | -1.23 | 0.162 |
| H116R | -0.042 | 0.647 |
| H116G | 0.0557 | -0.405 |
| H116K | 0.464 | -0.0313 |

| Variant | scaled log2 fold change [1] | scaled log2 fold change [2] |
| --- | --- | --- |
| H116E | -0.124 | 0.106 |
| H116F | 0.69 | 0.87 |
| H116M | -1.26 | 0.245 |
| H116L | -0.55 | -0.291 |
| H116W | -0.0982 | 0.125 |
| H116Y | 0.484 | 1.02 |
| I123V | -0.0405 | – |
| I123E | 0.111 | -0.217 |
| I123Y | -0.0557 | -0.336 |
| I123N | -0.867 | -0.142 |
| I123A | -0.0959 | -0.0656 |
| I123L | -0.128 | -0.00641 |
| I123R | -0.34 | 0.123 |
| I123P | 0.506 | -0.674 |
| I123D | 0.248 | 0.132 |
| I123K | 0.336 | 0.365 |
| I123W | -0.0593 | -0.208 |
| I123S | 0.133 | 0.206 |
| I123G | 0.293 | – |
| I123C | 0.148 | 0.505 |
| I123M | 0.264 | 0.00397 |
| I123T | 0.223 | 0.679 |
| I123H | 0.292 | -0.438 |
| I123Q | -0.0633 | -0.755 |

| Variant | scaled log2 fold change [1] | scaled log2 fold change [2] |
| --- | --- | --- |
| I123F | -0.346 | 0.312 |
| Y124M | -0.133 | -0.153 |
| Y124Q | 0.286 | -0.703 |
| Y124C | 0.198 | -0.0461 |
| Y124S | 0.413 | 0.62 |
| Y124A | -0.0589 | – |
| Y124R | 0.234 | -0.258 |
| Y124P | 0.511 | 0.253 |
| Y124H | 0.148 | 1.04 |
| Y124G | -0.0904 | 0.69 |
| Y124K | 0.0432 | -0.66 |
| Y124I | 0.367 | 0.0274 |
| Y124F | -0.497 | -0.225 |
| Y124W | -0.403 | -0.22 |
| Y124E | 0.16 | 0.747 |
| Y124T | 0.399 | -0.214 |
| Y124N | 0.36 | 1.01 |
| Y124L | 0.252 | 0.75 |
| Y124D | 0.088 | 0.872 |
| Y124V | -0.329 | -0.724 |
